Values quoted from earlier work as cited in publication PMC3476528.
pKd: −log10 of the molar value.

Biological target: histone H3 (Homo sapiens) (UniProt P68431)

CHD4 PHD2, sequence (Q14839 449-496): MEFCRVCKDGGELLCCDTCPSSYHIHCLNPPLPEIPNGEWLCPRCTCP

pKd: 4.74
Substance: CHD4 PHD2 (from UniProt Q14839)
